Results: US20170121395A1 (SINGH BIOTECHNOLOGY, published 2017)
Where two headings read alike, the source gives them in different places.

How the values were obtained:
[1] = biological target: T1, recombinant HIV-1 reverse transcriptase protein (HIV-1, UniProt P03367 600-858)
T1 construct: also called rHIV-1; HIV-1 RT

[2] = biological target: T1, recombinant HIV-1 reverse transcriptase …; remark: listed apart in the source
[3] = biological target: T1, recombinant HIV-1 reverse transcriptase …; experiment: SPR (Biacore 3000), sdAb immobilized (1200 RU), full kinetics, analyte 0-200 nM
[4] = biological target: T1, recombinant HIV-1 reverse transcriptase …; remark: listed apart in the source
[5] = biological target: T1, recombinant HIV-1 reverse transcriptase …; experiment: SPR (Biacore 3000), sdAb immobilized, analyte 100 nM
[6] = biological target: T1, recombinant HIV-1 reverse transcriptase …; remark: listed apart in the source
[7] = biological target: T1, recombinant HIV-1 reverse transcriptase …; experiment: ELISA, plate coated with HIV-1 RT, sdAb at 1 µg/mL, checkerboard of coating, 2° antibody and HRP
[8] = biological target: T1, recombinant HIV-1 reverse transcriptase …; remark: listed apart in the source
[9] = biological target: T1, recombinant HIV-1 reverse transcriptase …; remark: listed apart in the source

B1: HIV1-9 anti-HIV-1 RT sdAb (VHH)
VHH: EVQLVESGGGSVQAGGSLRLSCAASVYSYNTNCMGWFRQAPGKEREGVAVIYAAGGLTYYADSVKGRFTISQENGKNTVYLTMNRLKPEDTAMYYCAAKRWCSSWNRGEEYNYWGQGTQVTVSS
notes: also called HIV1-9 VHH; HIV1-9 anti-RT sdAb
EC50 [1]: 0.015 µg/mL
EC50 [2]: 0.0133 µg/mL
Kd [3]: 3.85 nM
koff [3]: 0.000731 s⁻¹
kon [3]: 190000 M⁻¹ s⁻¹
EC50 [4]: 0.019 µg/mL
Kd [5]: 4.25 nM
koff [5]: 0.000379 s⁻¹
kon [5]: 89100 M⁻¹ s⁻¹
EC50 [6]: 0.0191 µg/mL
signal-to-noise ratio [7]: > 20
EC50 [8]: 0.0161 µg/mL
EC50 [9]: 0.0227 µg/mL
